Read-outs that look alike come from different tables or passages of the source.
Legend:
[1] = molecular target: the molecule itself; assay: small angle neutron scattering
[2] = molecular target: the molecule itself; assay: small angle neutron scattering; remark: listed apart in the source

B1: 17H6 (other)
chain: MGHHHHHHHHHHSSGHIHMAAAQEAAAAQAAAQAEAAQAAQAAAQEAAAAQAAAQAEAAQAAQAAAQEAAAAQAAAQAEAAQAAQAAAQEAAAAQAAAQAEAAQAAQAAAQEAAAAQAAAQAEAAQAAQAAAQEAAAAQAAAQAEAAQAAQAGGYGGMG
[1]
  stoichiometry N: 171 ± 2
[2]
  stoichiometry N: 266 ± 3

Reference: paper PMC3769986 (Soft matter, 2011)
